Broadly, the pKd is −log10 of the Kd, conventionally taken in molar units. Read a low pKd as a large Kd.

In experiment [1] the target is microtubules (MTs; α-tubulin/β-tubulin) (UniProt P02554).
The target is the same in experiment [2]. The experiment can be described thus: other fluorescence titration; fluorescently labeled MAP7 on MTs at different concentrations, fluorescence intensity fit to the Hill equation; 150 mM KAc.

pKd: −log10 of the molar value.

“full-length (FL) MAP7 (from UniProt Q14244 1-749) (natural protein)” registered a half-max inhibition constant of the run frequency of dynein-dynactin-BicDR1 (DDR) on MTs against MAP7 concentration (blocks dynein on MTs); 150 mM KAc in experiment [1] of 10 nM. In experiment [2], this substance showed a pKd of 6.95.

The values are drawn from PMC8985661.
